US20070105096A1
Blank lines part the entries; values can stand above or below the substance they belong to.

How the values were obtained:
[1] = target: orphan G-protein coupled receptor G10d (human) (UniProt O15218); assay: cell-based or functional assay
[2] = target: type I angiotensin II receptor (AT1), bovine (bovine) (UniProt P25104); assay: cell-based or functional assay
Chain of type I angiotensin II receptor (AT1), bovine (bovine) (P25104 whole entry): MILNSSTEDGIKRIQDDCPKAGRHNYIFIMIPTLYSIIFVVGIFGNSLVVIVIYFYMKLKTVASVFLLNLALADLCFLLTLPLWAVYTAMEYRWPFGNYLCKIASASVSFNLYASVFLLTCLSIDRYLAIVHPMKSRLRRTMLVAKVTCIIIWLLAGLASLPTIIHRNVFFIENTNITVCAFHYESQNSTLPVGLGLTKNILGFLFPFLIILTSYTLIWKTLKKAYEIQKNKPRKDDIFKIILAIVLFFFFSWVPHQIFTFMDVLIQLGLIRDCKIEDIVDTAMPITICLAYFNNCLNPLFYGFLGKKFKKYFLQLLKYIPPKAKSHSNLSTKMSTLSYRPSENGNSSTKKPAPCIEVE

Chain of orphan G-protein coupled receptor G10d (human) (O15218 whole entry): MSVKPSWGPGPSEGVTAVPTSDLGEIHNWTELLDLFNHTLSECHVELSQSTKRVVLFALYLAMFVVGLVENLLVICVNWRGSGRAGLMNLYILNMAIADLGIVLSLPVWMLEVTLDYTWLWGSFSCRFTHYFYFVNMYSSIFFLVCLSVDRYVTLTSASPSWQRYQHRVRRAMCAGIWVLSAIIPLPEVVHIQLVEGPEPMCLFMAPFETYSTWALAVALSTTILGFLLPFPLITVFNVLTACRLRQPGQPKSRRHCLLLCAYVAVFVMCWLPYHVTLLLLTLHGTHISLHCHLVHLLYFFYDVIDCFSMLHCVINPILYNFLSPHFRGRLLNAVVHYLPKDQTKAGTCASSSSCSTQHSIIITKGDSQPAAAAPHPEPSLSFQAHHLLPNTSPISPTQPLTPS

induction ratio of the reporter (Renilla reniformis luciferase, CRE), host GBCRC6 with pAGal9-G10d, 100 nmol/L of ACTH [1]: 11 fold
Substance: adrenocorticotropic hormone (ACTH) (from UniProt P01189 138-176) (peptide)

firefly luciferase activity (CRE reporter), host GBCC13 with pAGal9-AT1, angiotensin II 100 nmol/L [2]: 85 fold
Substance: human angiotensin II (manufactured by Bachem) (from UniProt P01019 25-476) (peptide)

induction ratio of the reporter (Renilla reniformis luciferase, CRE), host GBCRC6 with pAGal9-G10d, 100 µmol/L of α-MSH as printed [1]: 10 fold
Substance: α-melanocyte-stimulating hormone (α-MSH) (from UniProt P01189 138-150) (peptide)
